pKd: −log10 of the molar value.
Assays:
Assay in all cases: IEDB peptide-MHC binding, purified MHC/competitive/fluorescence; filed as Kd, often an IC50 or EC50 that approximates it; ≥ and ≤ were set here for values at or beyond the usual limits of such assays
Details in all cases: source organism: Lyssavirus rabies
HLA-A*30:01 = biological target: HLA-A*30:01
HLA-B*27:05 = biological target: HLA-B*27:05
HLA-A*66:01 = biological target: HLA-A*66:01
HLA-A*11:01 = biological target: HLA-A*11:01
HLA-B*58:01 = biological target: HLA-B*58:01
HLA-B*08:01 = biological target: HLA-B*08:01
HLA-A*01:01 = biological target: HLA-A*01:01
HLA-B*40:01 = biological target: HLA-B*40:01
HLA-A*30:02 = biological target: HLA-A*30:02

Measured: pKd

YLDNVGVHI
≤ 5.30: all assays above
